# In patent US20220074941A1, “HSP90 COMBINATION THERAPY” (Sloan-Kettering Institute for Cancer Research, priority 2011, published 2022):
# Columns and labels:
# [1] = test system: Hsp90 complexes in K562 cell extract; assay: Nano-LC-MS/MS of PU-beads pull-downs; format: binding; details: protein identified in PU-beads pull-down of K562 cell extract, QSTAR-Elite QTof MS
# Summary of the method: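 Lysates pre-cleared overnight at 4 °C with control beads, then pulled down with PU-beads or control beads; eluted proteins (2% SDS boil) gel-separated and analysed by nano LC-MS/MS on a QTof. Mascot identification (p<0.05), spectral counts and sequence coverage evaluated in Scaffold.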
# [2] = test system: Hsp90 complexes in Mia-PaCa-2 cell extract; assay: Nano-LC-MS/MS of PU-beads pull-downs; format: binding, human; details: protein identified in PU-beads pull-down of Mia-PaCa-2 cell extract; QSTAR-Elite QTof MS
# Summary of the method: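 Lysates pre-cleared overnight at 4 °C with control beads underwent PU-bead pull-down; bound proteins were SDS-eluted, gel-separated, digested and analyzed by nano-LC-MS/MS on a QTof. Identifications used significance p<0.05, 0.4 Da tolerances and one missed cleavage; unique peptide (spectral) counts and sequence coverage were reported.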
Molecule,"Number of Assigned Spectra, K562 Prep 1 [1]","Number of Assigned Spectra, K562 Prep 2 [1]","Number of Assigned Spectra, Mia-Paca 2 [2]"
"LRRC40 (protein, UniProt Q9H9A6 1-602, looked up) Leucine-rich …: MSRLKRIAGQDLRAGFKAGGRDCGTSVPQGLLKAARKSGQLNLSGRNLSEVPQCVWRINVDIPEEANQNLSFGATERWWEQTDLTKLIISNNKLQSLTDDLRLLPALTVLDIHDNQLTSLPSAIRELENLQKLNVSHNKLKILPEEITNLRNLKCLYLQHNELTCISEGFEQLSNLEDLDLSNNHLTTVPASFSSLSSLVRLNLSSNELKSLPAEINRMKRLKHLDCNSNLLETIPPELAGMESLELLYLRRNKLRFLPEFPSCSLLKELHVGENQIEMLEAEHLKHLNSILVLDLRDNKLKSVPDEIILLRSLERLDLSNNDISSLPYSLGNLHLKFLALEGNPLRTIRREIISKGTQEVLKYLRSKIKDDGPSQSESATETAMTLPSESRVNIHAIITLKILDYSDKQATLIPDEVFDAVKSNIVTSINFSKNQLCEIPKRMVELKEMVSDVDLSFNKLSFISLELCVLQKLTFLDLRNNFLNSLPEEMESLVRLQTINLSFNRFKMLPEVLYRIFTLETILISNNQVGSVDPQKMKMMENLTTLDLQNNDLLQIPPELGNCVNLRTLLLDGNPFRVPRAAILMKGTAAILEYLRDRIPT",4,3,0
"NOB1 (protein, UniProt Q9ULX3 2-412, looked up) RNA-binding protein NOB1: APVEHVVADAGAFLRHAALQDIGKNIYTIREVVTEIRDKATRRRLAVLPYELRFKEPLPEYVRLVTEFSKKTGDYPSLSATDIQVLALTYQLEAEFVGVSHLKQEPQKVKVSSSIQHPETPLHISGFHLPYKPKPPQETEKGHSACEPENLEFSSFMFWRNPLPNIDHELQELLIDRGEDVPSEEEEEEENGFEDRKDDSDDDGGGWITPSNIKQIQQELEQCDVPEDVRVGCLTTDFAMQNVLLQMGLHVLAVNGMLIREARSYILRCHGCFKTTSDMSRVFCSHCGNKTLKKVSVTVSDDGTLHMHFSRNPKVLNPRGLRYSLPTPKGGKYAINPHLTEDQRFPQLRLSQKARQKTNVFAPDYIAGVSPFVENDISSRSATLQVRDSTLGAGRRRLNPNASRKKFVKKR",5,0,0
"NOP14 (protein, UniProt P78316 1-857, looked up) Nucleolar protein 14: MAKAKKVGARRKASGAPAGARGGPAKANSNPFEVKVNRQKFQILGRKTRHDVGLPGVSRARALRKRTQTLLKEYKERDKSNVFRDKRFGEYNSNMSPEEKMMKRFALEQQRHHEKKSIYNLNEDEELTHYGQSLADIEKHNDIVDSDSDAEDRGTLSAELTAAHFGGGGGLLHKKTQQEGEEREKPKSRKELIEELIAKSKQEKRERQAQREDALELTEKLDQDWKEIQTLLSHKTPKSENRDKKEKPKPDAYDMMVRELGFEMKAQPSNRMKTEAELAKEEQEHLRKLEAERLRRMLGKDEDENVKKPKHMSADDLNDGFVLDKDDRRLLSYKDGKMNVEEDVQEEQSKEASDPESNEEEGDSSGGEDTEESDSPDSHLDLESNVESEEENEKPAKEQRQTPGKGLISGKERAGKATRDELPYTFAAPESYEELRSLLLGRSMEEQLLVVERIQKCNHPSLAEGNKAKLEKLFGFLLEYVGDLATDDPPDLTVIDKLVVHLYHLCQMFPESASDAIKFVLRDAMHEMEEMIETKGRAALPGLDVLIYLKITGLLFPTSDFWHPVVTPALVCLSQLLTKCPILSLQDVVKGLFVCCLFLEYVALSQRFIPELINFLLGILYIATPNKASQGSTLVHPFRALGKNSELLVVSAREDVATWQQSSLSLRWASRLRAPTSTEANHIRLSCLAVGLALLKRCVLMYGSLPSFHAIMGPLQALLTDHLADCSHPQELQELCQSTLTEMESQKQLCRPLTCEKSKPVPLKLFTPRLVKVLEFGRKQGSSKEEQERKRLIHKHKREFKGAVREIRKDNQFLARMQLSEIMERDAERKRKVKQLFNSLATQEGEWKALKRKKFKK",9,2,0
"VAC14 (protein, UniProt Q08AM6 1-782, looked up) Protein VAC14 homolog: MNPEKDFAPLTPNIVRALNDKLYEKRKVAALEIEKLVREFVAQNNTVQIKHVIQTLSQEFALSQHPHSRKGGLIGLAACSIALGKDSGLYLKELIEPVLTCFNDADSRLRYYACEALYNIVKVARGAVLPHFNVLFDGLSKLAADPDPNVKSGSELLDRLLKDIVTESNKFDLVSFIPLLRERIYSNNQYARQFIISWILVLESVPDINLLDYLPEILDGLFQILGDNGKEIRKMCEVVLGEFLKEIKKNPSSVKFAEMANILVIHCQTTDDLIQLTAMCWMREFIQLAGRVMLPYSSGILTAVLPCLAYDDRKKSIKEVANVCNQSLMKLVTPEDDELDELRPGQRQAEPTPDDALPKQEGTASGGPDGSCDSSFSSGISVFTAASTERAPVTLHLDGIVQVLNCHLSDTAIGMMTRIAVLKWLYHLYIKTPRKMFRHTDSLFPILLQTLSDESDEVILKDLEVLAEIASSPAGQTDDPGPLDGPDLQASHSELQVPTPGRAGLLNTSGTKGLECSPSTPTMNSYFYKFMINLLKRFSSERKLLEVRGPFIIRQLCLLLNAENIFHSMADILLREEDLKFASTMVHALNTILLTSTELFQLRNQLKDLKTLESQNLFCCLYRSWCHNPVTTVSLCFLTQNYRHAYDLIQKFGDLEVTVDFLAEVDKLVQLIECPIFTYLRLQLLDVKNNPYLIKALYGLLMLLPQSSAFQLLSHRLQCVPNPELLQTEDSLKAAPKSQKADSPSIDYAELLQHFEKVQNKHLEVRHQRSGRGDHLDRRVVL",5,2,0
"NOP2 (protein, UniProt P46087 1-812, looked up) 28S rRNA …: MGRKLDPTKEKRGPGRKARKQKGAETELVRFLPAVSDENSKRLSSRARKRAAKRRLGSVEAPKTNKSPEAKPLPGKLPKGISAGAVQTAGKKGPQSLFNAPRGKKRPAPGSDEEEEEEDSEEDGMVNHGDLWGSEDDADTVDDYGADSNSEDEEEGEALLPIERAARKQKAREAAAGIQWSEEETEDEEEEKEVTPESGPPKVEEADGGLQINVDEEPFVLPPAGEMEQDAQAPDLQRVHKRIQDIVGILRDFGAQREEGRSRSEYLNRLKKDLAIYYSYGDFLLGKLMDLFPLSELVEFLEANEVPRPVTLRTNTLKTRRRDLAQALINRGVNLDPLGKWSKTGLVVYDSSVPIGATPEYLAGHYMLQGASSMLPVMALAPQEHERILDMCCAPGGKTSYMAQLMKNTGVILANDANAERLKSVVGNLHRLGVTNTIISHYDGRQFPKVVGGFDRVLLDAPCSGTGVISKDPAVKTNKDEKDILRCAHLQKELLLSAIDSVNATSKTGGYLVYCTCSITVEENEWVVDYALKKRNVRLVPTGLDFGQEGFTRFRERRFHPSLRSTRRFYPHTHNMDGFFIAKFKKFSNSIPQSQTGNSETATPTNVDLPQVIPKSENSSQPAKKAKGAAKTKQQLQKQQHPKKASFQKLNGISKGADSELSTVPSVTKTQASSSFQDSSQPAGKAEGIREPKVTGKLKQRSPKLQSSKKVAFLRQNAPPKGTDTQTPAVLSPSKTQATLKPKDHHQPLGRAKGVEKQQLPEQPFEKAAFQKQNDTPKGPQPPTVSPIRSSRPPPAKRKKSQSRGNSQLLLS",0,0,7
"PRPF3 (protein, UniProt O43395 1-683, looked up) U4/U6 small nuclear …: MALSKRELDELKPWIEKTVKRVLGFSEPTVVTAALNCVGKGMDKKKAADHLKPFLDDSTLRFVDKLFEAVEEGRSSRHSKSSSDRSRKRELKEVFGDDSEISKESSGVKKRRIPRFEEVEEEPEVIPGPPSESPGMLTKLQIKQMMEAATRQIEERKKQLSFISPPTPQPKTPSSSQPERLPIGNTIQPSQAATFMNDAIEKARKAAELQARIQAQLALKPGLIGNANMVGLANLHAMGIAPPKVELKDQTKPTPLILDEQGRTVDATGKEIELTHRMPTLKANIRAVKREQFKQQLKEKPSEDMESNTFFDPRVSIAPSQRQRRTFKFHDKGKFEKIAQRLRTKAQLEKLQAEISQAARKTGIHTSTRLALIAPKKELKEGDIPEIEWWDSYIIPNGFDLTEENPKREDYFGITNLVEHPAQLNPPVDNDTPVTLGVYLTKKEQKKLRRQTRREAQKELQEKVRLGLMPPPEPKVRISNLMRVLGTEAVQDPTKVEAHVRAQMAKRQKAHEEANAARKLTAEQRKVKKIKKLKEDISQGVHISVYRVRNLSNPAKKFKIEANAGQLYLTGVVVLHKDVNVVVVEGGPKAQKKFKRLMLHRIKWDEQTSNTKGDDDEESDEEAVKKTNKCVLVWEGTAKDRSFGEMKFKQCPTENMAREHFKKHGAEHYWDLALSESVLESTD",3,0,0
"PRPF31 (protein, UniProt Q8WWY3 1-499, looked up) U4/U6 small nuclear …: MSLADELLADLEEAAEEEEGGSYGEEEEEPAIEDVQEETQLDLSGDSVKTIAKLWDSKMFAEIMMKIEEYISKQAKASEVMGPVEAAPEYRVIVDANNLTVEIENELNIIHKFIRDKYSKRFPELESLVPNALDYIRTVKELGNSLDKCKNNENLQQILTNATIMVVSVTASTTQGQQLSEEELERLEEACDMALELNASKHRIYEYVESRMSFIAPNLSIIIGASTAAKIMGVAGGLTNLSKMPACNIMLLGAQRKTLSGFSSTSVLPHTGYIYHSDIVQSLPPDLRRKAARLVAAKCTLAARVDSFHESTEGKVGYELKDEIERKFDKWQEPPPVKQVKPLPAPLDGQRKKRGGRRYRKMKERLGLTEIRKQANRMSFGEIEEDAYQEDLGFSLGHLGKSGSGRVRQTQVNEATKARISKTLQRTLQKQSVVYGGKSTIRDRSSGTASSVAFTPLQGLEIVNPQAAEKKVAEANQKYFSSMAEFLKVKGEKSGLMST",3,2,0
